{
  "source": "paper PMC3022821",
  "about": "“Glycogen synthase kinase-3β inactivation inhibits tumor necrosis factor-α production in microglia by modulating nuclear factor κB and MLK3/JNK signaling cascades” (Journal of Neuroinflammation, 2010)",
  "proteins": {"B1": {"name": "Mixed lineage kinase 3 (MLK3) (natural protein, mouse (endogenous in BV-2), UniProt Q80XI6 1-850, looked up)", "chain": "MEPLKNLFLKSPLGSWNGSGSGGGGGTGGVRPEGSPKATAAYANPVWTALFDYEPNGQDELALRKGDRVEVLSRDAAISGDEGWWAGQVGGQVGIFPSNYVSRGGGPPPCEVASFQELRLEEVIGIGGFGKVYRGSWRGELVAVKAARQDPDEDISVTAESVRQEARLFAMLAHPNIIALKAVCLEEPNLCLVMEYAAGGPLSRALAGRRVPPHVLVNWAVQIARGMHYLHCEALVPVIHRDLKSNNILLLQPIEGDDMEHKTLKITDFGLAREWHKTTQMSAAGTYAWMAPEVIKASTFSKGSDVWSFGVLLWELLTGEVPYRGIDCLAVAYGVAVNKLTLPIPSTCPEPFAQLMADCWAQDPHRRPDFASILQQLEALEAQVLREMPRDSFHSMQEGWKREIQGLFDELRAKEKELLSREEELTRAAREQRSQAEQLRRREHLLAQWELEVFERELTLLLQQVDRERPHVRRRRGTFKRSKLRARDGGERISMPLDFKHRITVQASPGLDRRRNVFEVGAGDSPTFPRFRAIQLEPTESGQTWGRQSPRRLEDSSNGERRACWAWGPSSPKPGEAQNGRRRSRMDEATWYLDSDDSSPLGSPSTPPALNGNPPRPSPEPEEPRRAGPTERGNSSGTPKLIQRALLRGTALLASLGLGRDLQPPGGLSRERGESPTAPPPAQMPSPCPPELPSTPLIRLSQTTPDAHSSPTPGPLLLDLGVPSGQPSAKSPRREETRGRTVSPPPGISRSAPGTPGTPRSPPLGLISRPRPSPLRSRIDPWSFVSAGPRPSPLPSPQPAPRRAPWTLFPDSDPFWDSPPANPFRGGSQDCRTQTKDMGAQAPWAPEAGP", "notes": "Mixed lineage kinase 3 (MLK3), endogenous in murine BV-2 microglial cells; monomer of 105 kDa on SDS-PAGE; Precipitated with a goat anti-MLK3 antibody (Santa Cruz Biotechnology); the dimer is disulfide-linked and is seen only without DTT; source: endogenous, BV-2 cell lysate"}},
  "biological_target": "the molecule itself",
  "assay": "immunoprecipitation and non-reducing SDS-PAGE; BV-2 lysates, IP with goat anti-MLK3; precipitates separated by SDS-PAGE without DTT; blot with rabbit anti-MLK3; disulfide-linked dimer; cells with or without LPS (100 ng/ml)",
  "data": [
    {"protein": "B1", "values": [
      {"measurement": "stoichiometry N", "result": 2}
    ]}
  ]
}
